Results taken from the RNAGym collection of RNA variant scans (doi:10.7554/elife.80360).

B1: Twister Ribozyme (parent)
chain: AACACUGCCAAUGCCGGUCCCAAGCCCGGAUAAAAGUGGAGGGGGCGG

Variants of: B1
Assay: self-cleavage, relative activity (ratio to wild type); higher = more cleavage; co-transcriptional

Variant	self-cleavage
AACACUGCCAAUGCCGGUCCCAAGCCCGAAUAAAAGUGGAGGGGGCUG [G29A G47U]	0.765
AACACUGCCAAUGCCGGUCCCAAGCCCGAAUAAAAGUGGAGGGGGCGA [G29A G48A]	0.874
AACACUGCCAAUGCCGGUCCCAAGCCCGAAUAAAAGAGGAGGGGGCGG [G29A U37A]	0.569
AACACUGCCAAUGCCGGUCCCAAGCCCGAAUAAAAGGGGAGGGGGCGG [G29A U37G]	0.395
AACACUGCCAAUGCCGGUCCCAAGCCCGCAUAAAAGUGGAGGGGGCGG [G29C]	0.858
AACACUGCCAAUGCCGGUCCCAAGCCCGCCUAAAAGUGGAGGGGGCGG [G29C A30C]	0.971
AACACUGCCAAUGCCGGUCCCAAGCCCGCAUUAAAGUGGAGGGGGCGG [G29C A32U]	0.443
AACACUGCCAAUGCCGGUCCCAAGCCCGCAUACAAGUGGAGGGGGCGG [G29C A33C]	0.545
AACACUGCCAAUGCCGGUCCCAAGCCCGCAUAACAGUGGAGGGGGCGG [G29C A34C]	0.148
AACACUGCCAAUGCCGGUCCCAAGCCCGCAUAAGAGUGGAGGGGGCGG [G29C A34G]	0.214
AACACUGCCAAUGCCGGUCCCAAGCCCGCAUAAAAGUGGGGGGGGCGG [G29C A40G]	0.157
AACACUGCCAAUGCCGGUCCCAAGCCCGCAUAAAAUUGGAGGGGGCGG [G29C G36U]	0.106
AACACUGCCAAUGCCGGUCCCAAGCCCGCAUAAAAGUUGAGGGGGCGG [G29C G38U]	0.627
AACACUGCCAAUGCCGGUCCCAAGCCCGCAUAAAAGUGAAGGGGGCGG [G29C G39A]	0.143
AACACUGCCAAUGCCGGUCCCAAGCCCGCAUAAAAGUGUAGGGGGCGG [G29C G39U]	0.12
AACACUGCCAAUGCCGGUCCCAAGCCCGCAUAAAAGUGGACGGGGCGG [G29C G41C]	0.0927
AACACUGCCAAUGCCGGUCCCAAGCCCGCAUAAAAGUGGAGAGGGCGG [G29C G42A]	0.11
AACACUGCCAAUGCCGGUCCCAAGCCCGCAUAAAAGUGGAGCGGGCGG [G29C G42C]	0.174
AACACUGCCAAUGCCGGUCCCAAGCCCGCAUAAAAGUGGAGUGGGCGG [G29C G42U]	0.129
AACACUGCCAAUGCCGGUCCCAAGCCCGCAUAAAAGUGGAGGUGGCGG [G29C G43U]	0.156
AACACUGCCAAUGCCGGUCCCAAGCCCGCAUAAAAGUGGAGGGUGCGG [G29C G44U]	0.777
AACACUGCCAAUGCCGGUCCCAAGCCCGCAUAAAAGUGGAGGGGACGG [G29C G45A]	0.667

Variant	self-cleavage
AACACUGCCAAUGCCGGUCCCAAGCCCGCAUAAAAGUGGAGGGGUCGG [G29C G45U]	0.362
AACACUGCCAAUGCCGGUCCCAAGCCCGCAUAAAAGUGGAGGGGGCAG [G29C G47A]	0.397
AACACUGCCAAUGCCGGUCCCAAGCCCGCAUAAAAGUGGAGGGGGCCG [G29C G47C]	0.222
AACACUGCCAAUGCCGGUCCCAAGCCCGCAUAAAAGUGGAGGGGGCUG [G29C G47U]	0.3
AACACUGCCAAUGCCGGUCCCAAGCCCGCAUAAAAGUGGAGGGGGCGU [G29C G48U]	0.642
AACACUGCCAAUGCCGGUCCCAAGCCCGCAAAAAAGUGGAGGGGGCGG [G29C U31A]	1
AACACUGCCAAUGCCGGUCCCAAGCCCGCAGAAAAGUGGAGGGGGCGG [G29C U31G]	0.851
AACACUGCCAAUGCCGGUCCCAAGCCCGCAUAAAAGAGGAGGGGGCGG [G29C U37A]	0.259
AACACUGCCAAUGCCGGUCCCAAGCCCGCAUAAAAGCGGAGGGGGCGG [G29C U37C]	0.182
AACACUGCCAAUGCCGGUCCCAAGCCCGCAUAAAAGGGGAGGGGGCGG [G29C U37G]	0.4
AACACUGCCAAUGCCGGUCCCAAGCCCGUAUAAAAGUGGAGGGGGCGG [G29U]	0.937
AACACUGCCAAUGCCGGUCCCAAGCCCGUGUAAAAGUGGAGGGGGCGG [G29U A30G]	1
AACACUGCCAAUGCCGGUCCCAAGCCCGUAUCAAAGUGGAGGGGGCGG [G29U A32C]	0.836
AACACUGCCAAUGCCGGUCCCAAGCCCGUAUAGAAGUGGAGGGGGCGG [G29U A33G]	0.747
AACACUGCCAAUGCCGGUCCCAAGCCCGUAUAACAGUGGAGGGGGCGG [G29U A34C]	0.185
AACACUGCCAAUGCCGGUCCCAAGCCCGUAUAAUAGUGGAGGGGGCGG [G29U A34U]	0.666
AACACUGCCAAUGCCGGUCCCAAGCCCGUAUAAACGUGGAGGGGGCGG [G29U A35C]	0.892
AACACUGCCAAUGCCGGUCCCAAGCCCGUAUAAAGGUGGAGGGGGCGG [G29U A35G]	0.786
AACACUGCCAAUGCCGGUCCCAAGCCCGUAUAAAAGUGGCGGGGGCGG [G29U A40C]	0.208
AACACUGCCAAUGCCGGUCCCAAGCCCGUAUAAAAGUGGGGGGGGCGG [G29U A40G]	0.167
AACACUGCCAAUGCCGGUCCCAAGCCCGUAUAAAAGUGGUGGGGGCGG [G29U A40U]	0.145
AACACUGCCAAUGCCGGUCCCAAGCCCGUAUAAAAGUGGAGGGGGGGG [G29U C46G]	0.88

Variant	self-cleavage
AACACUGCCAAUGCCGGUCCCAAGCCCGUAUAAAAGUGGAGGGGGUGG [G29U C46U]	0.901
AACACUGCCAAUGCCGGUCCCAAGCCCGUAUAAAACUGGAGGGGGCGG [G29U G36C]	0.319
AACACUGCCAAUGCCGGUCCCAAGCCCGUAUAAAAUUGGAGGGGGCGG [G29U G36U]	0.212
AACACUGCCAAUGCCGGUCCCAAGCCCGUAUAAAAGUUGAGGGGGCGG [G29U G38U]	0.666
AACACUGCCAAUGCCGGUCCCAAGCCCGUAUAAAAGUGAAGGGGGCGG [G29U G39A]	0.417
AACACUGCCAAUGCCGGUCCCAAGCCCGUAUAAAAGUGCAGGGGGCGG [G29U G39C]	0.116
AACACUGCCAAUGCCGGUCCCAAGCCCGUAUAAAAGUGUAGGGGGCGG [G29U G39U]	0.223
AACACUGCCAAUGCCGGUCCCAAGCCCGUAUAAAAGUGGACGGGGCGG [G29U G41C]	0.25
AACACUGCCAAUGCCGGUCCCAAGCCCGUAUAAAAGUGGAGAGGGCGG [G29U G42A]	0.224
AACACUGCCAAUGCCGGUCCCAAGCCCGUAUAAAAGUGGAGGAGGCGG [G29U G43A]	0.23
AACACUGCCAAUGCCGGUCCCAAGCCCGUAUAAAAGUGGAGGCGGCGG [G29U G43C]	0.19
AACACUGCCAAUGCCGGUCCCAAGCCCGUAUAAAAGUGGAGGGUGCGG [G29U G44U]	0.837
AACACUGCCAAUGCCGGUCCCAAGCCCGUAUAAAAGUGGAGGGGGCGA [G29U G48A]	0.905
AACACUGCCAAUGCCGGUCCCAAGCCCGUAUAAAAGUGGAGGGGGCGU [G29U G48U]	0.867
AACACUGCCAAUGCCGGUCCCAAGCCCGUACAAAAGUGGAGGGGGCGG [G29U U31C]	0.972
AACACUGCCAAUGCCGGUCCCAAGCCCGUAGAAAAGUGGAGGGGGCGG [G29U U31G]	0.92
AACACUGCCAAUGCCGGUCCCAAGCCCGUAUAAAAGAGGAGGGGGCGG [G29U U37A]	0.512
AACACUGCCAAUGCCGGUCCCAAGCCCGUAUAAAAGCGGAGGGGGCGG [G29U U37C]	0.444
AACACUGCCAAUGCCGGUCCCAAGCCCGGCUCAAAGUGGAGGGGGCGG [A30C A32C]	0.758
AACACUGCCAAUGCCGGUCCCAAGCCCGGCUUAAAGUGGAGGGGGCGG [A30C A32U]	0.9
AACACUGCCAAUGCCGGUCCCAAGCCCGGCUACAAGUGGAGGGGGCGG [A30C A33C]	0.676
AACACUGCCAAUGCCGGUCCCAAGCCCGGCUAUAAGUGGAGGGGGCGG [A30C A33U]	0.766

Variant	self-cleavage
AACACUGCCAAUGCCGGUCCCAAGCCCGGCUAACAGUGGAGGGGGCGG [A30C A34C]	0.0893
AACACUGCCAAUGCCGGUCCCAAGCCCGGCUAAUAGUGGAGGGGGCGG [A30C A34U]	0.314
AACACUGCCAAUGCCGGUCCCAAGCCCGGCUAAAUGUGGAGGGGGCGG [A30C A35U]	0.912
AACACUGCCAAUGCCGGUCCCAAGCCCGGCUAAAAGUGGAGGGGGAGG [A30C C46A]	0.612
AACACUGCCAAUGCCGGUCCCAAGCCCGGCUAAAAGUGGAGGGGGGGG [A30C C46G]	0.647
AACACUGCCAAUGCCGGUCCCAAGCCCGGCUAAAAGUGGAGGGGGUGG [A30C C46U]	0.798
AACACUGCCAAUGCCGGUCCCAAGCCCGGCUAAAACUGGAGGGGGCGG [A30C G36C]	0.0822
AACACUGCCAAUGCCGGUCCCAAGCCCGGCUAAAAUUGGAGGGGGCGG [A30C G36U]	0.0939
AACACUGCCAAUGCCGGUCCCAAGCCCGGCUAAAAGUCGAGGGGGCGG [A30C G38C]	0.732
AACACUGCCAAUGCCGGUCCCAAGCCCGGCUAAAAGUGCAGGGGGCGG [A30C G39C]	0.107
AACACUGCCAAUGCCGGUCCCAAGCCCGGCUAAAAGUGUAGGGGGCGG [A30C G39U]	0.106
AACACUGCCAAUGCCGGUCCCAAGCCCGGCUAAAAGUGGAAGGGGCGG [A30C G41A]	0.133
AACACUGCCAAUGCCGGUCCCAAGCCCGGCUAAAAGUGGACGGGGCGG [A30C G41C]	0.124
AACACUGCCAAUGCCGGUCCCAAGCCCGGCUAAAAGUGGAUGGGGCGG [A30C G41U]	0.156
AACACUGCCAAUGCCGGUCCCAAGCCCGGCUAAAAGUGGAGCGGGCGG [A30C G42C]	0.111
AACACUGCCAAUGCCGGUCCCAAGCCCGGCUAAAAGUGGAGGCGGCGG [A30C G43C]	0.103
AACACUGCCAAUGCCGGUCCCAAGCCCGGCUAAAAGUGGAGGUGGCGG [A30C G43U]	0.121
AACACUGCCAAUGCCGGUCCCAAGCCCGGCUAAAAGUGGAGGGCGCGG [A30C G44C]	0.874
AACACUGCCAAUGCCGGUCCCAAGCCCGGCUAAAAGUGGAGGGUGCGG [A30C G44U]	0.793
AACACUGCCAAUGCCGGUCCCAAGCCCGGCUAAAAGUGGAGGGGUCGG [A30C G45U]	0.573
AACACUGCCAAUGCCGGUCCCAAGCCCGGCUAAAAGUGGAGGGGGCAG [A30C G47A]	0.577
AACACUGCCAAUGCCGGUCCCAAGCCCGGCUAAAAGUGGAGGGGGCUG [A30C G47U]	0.48

Variant	self-cleavage
AACACUGCCAAUGCCGGUCCCAAGCCCGGCUAAAAGUGGAGGGGGCGA [A30C G48A]	0.576
AACACUGCCAAUGCCGGUCCCAAGCCCGGCAAAAAGUGGAGGGGGCGG [A30C U31A]	0.687
AACACUGCCAAUGCCGGUCCCAAGCCCGGCCAAAAGUGGAGGGGGCGG [A30C U31C]	0.841
AACACUGCCAAUGCCGGUCCCAAGCCCGGCUAAAAGGGGAGGGGGCGG [A30C U37G]	0.306
AACACUGCCAAUGCCGGUCCCAAGCCCGGGUCAAAGUGGAGGGGGCGG [A30G A32C]	0.877
AACACUGCCAAUGCCGGUCCCAAGCCCGGGUACAAGUGGAGGGGGCGG [A30G A33C]	1.06
AACACUGCCAAUGCCGGUCCCAAGCCCGGGUAUAAGUGGAGGGGGCGG [A30G A33U]	0.919
AACACUGCCAAUGCCGGUCCCAAGCCCGGGUAACAGUGGAGGGGGCGG [A30G A34C]	0.497
AACACUGCCAAUGCCGGUCCCAAGCCCGGGUAAGAGUGGAGGGGGCGG [A30G A34G]	0.761
AACACUGCCAAUGCCGGUCCCAAGCCCGGGUAAUAGUGGAGGGGGCGG [A30G A34U]	0.86
AACACUGCCAAUGCCGGUCCCAAGCCCGGGUAAAGGUGGAGGGGGCGG [A30G A35G]	0.869
AACACUGCCAAUGCCGGUCCCAAGCCCGGGUAAAAGUGGGGGGGGCGG [A30G A40G]	0.187
AACACUGCCAAUGCCGGUCCCAAGCCCGGGUAAAAGUGGAGGGGGGGG [A30G C46G]	0.964
AACACUGCCAAUGCCGGUCCCAAGCCCGGGUAAAAGUGGAGGGGGUGG [A30G C46U]	0.779
AACACUGCCAAUGCCGGUCCCAAGCCCGGGUAAAAUUGGAGGGGGCGG [A30G G36U]	0.32
AACACUGCCAAUGCCGGUCCCAAGCCCGGGUAAAAGUAGAGGGGGCGG [A30G G38A]	0.853
AACACUGCCAAUGCCGGUCCCAAGCCCGGGUAAAAGUCGAGGGGGCGG [A30G G38C]	0.868
AACACUGCCAAUGCCGGUCCCAAGCCCGGGUAAAAGUGGACGGGGCGG [A30G G41C]	0.37
AACACUGCCAAUGCCGGUCCCAAGCCCGGGUAAAAGUGGAGUGGGCGG [A30G G42U]	0.377
AACACUGCCAAUGCCGGUCCCAAGCCCGGGUAAAAGUGGAGGUGGCGG [A30G G43U]	0.498
